Test results taken from patent US20080112961A1 (MacroGenics, published 2008).
Residue numbers refer to the chain shown, from its start. Names and notes keep the numbering of the source.

B1: ch4-4-20 K317N, F423-deleted (antibody)
chain: EPKSCDKTHTCPPCPAPELLGGPSVFLFPPKPKDTLMISRTPEVTCVVVDVSHEDPEVKFNWYVDGVEVHNAKTKPREEQYNSTYRVVSVLTVLHQDWLNGNEYKCKVSNKALPAPIEKTISKAKGQPREPQVYTLPPSREEMTKNQVSLTCLVKGFYPSDIAVEWESNGQPENNYKTTPPVLDSDGSFFLYSKLTVDKSRWQQGNVSCSVMHEALHNHYTQKSLSLSPGK
B2: ch4-4-20 T215P, K274N, A287G, K334N, L365V, P396L (antibody)
chain: PEPKSCDKTHTCPPCPAPELLGGPSVFLFPPKPKDTLMISRTPEVTCVVVDVSHEDPEVNFNWYVDGVEVHNGKTKPREEQYNSTYRVVSVLTVLHQDWLNGKEYKCKVSNKALPAPIENTISKAKGQPREPQVYTLPPSRDELTKNQVSVTCLVKGFYPSDIAVEWESNGQPENNYKTTPLVLDSDGSFFLYSKLTVDKSRWQQGNVFSCSVMHEALHNHYTQKSLSLSPGK
B3: ch4-4-20 A231V, Q386H, V412M (antibody)
heavy: ASTKGPSVFPLAPSSKSTSGGTAALGCLVKDYFPEPVTVSWNSGALTSGVHTFPAVLQSSGLYSLSSVVTVPSSSLGTQTYICNVNHKPSNTKVDKKVEPKSCDKTHTCPPCPVPELLGGPSVFLFPPKPKDTLMISRTPEVTCVVVDVSHEDPEVKFNWYVDGVEVHNAKTKPREEQYNSTYRVVSVLTVLHQDWLNGKEYKCKVSNKALPAPIEKTISKAKGQPREPQVYTLPPSRDELTKNQVSLTCLVKGFYPSDIAVEWESNGHPENNYKTTPPVLDSDGSFFLYSKLTMDKSRWQQGNVFSCSVMHEALHNHYTQKSLSLSPGK
B4: ch4-4-20 E269K, K290N, Q311R, H433Y (antibody)
heavy: B3 heavy with V114A, E152K, K173N, Q194R, H269Q, M295V, H316Y
B5: ch4-4-20 P247L, A431V, S442F (antibody)
heavy: B3 heavy with V114A, P130L, H269Q, M295V, A314V, S325F
B6: ch4-4-20 D221Y, M252I, A330G, A339T, T359N, V422I, H433L (antibody)
heavy: B3 heavy with D104Y, V114A, M135I, A213G, A222T, T242N, H269Q, M295V, V305I, H316L
B7: ch4-4-20 P247L, I253N, K334N (antibody)
heavy: B3 heavy with V114A, P130L, I136N, K217N, H269Q, M295V
B8: ch4-4-20 K222N, T335N, K370E, A378V, T394M (antibody)
heavy: B3 heavy with K105N, V114A, T218N, K253E, A261V, H269Q, T277M, M295V
B9: ch4-4-20 K246R, S298N, I377F (antibody)
heavy: B3 heavy with V114A, K129R, S181N, I260F, H269Q, M295V
B10: ch4-4-20 P247L, W313R, E388G (antibody)
heavy: B3 heavy with V114A, P130L, W196R, H269Q, E271G, M295V
B11: ch4-4-20 K246N, Q419R, P396L (antibody)
heavy: B3 heavy with V114A, K129N, H269Q, P279L, M295V, Q302R
B12: ch4-4-20 K334E, T359N, T366S, Q386R (antibody)
heavy: B3 heavy with V114A, K217E, T242N, T249S, H269R, M295V
B13: ch4-4-20 P244H, L358M, V379M, N384K, V397M (antibody)
heavy: B3 heavy with V114A, P127H, L241M, V262M, N267K, H269Q, V280M, M295V
B14: ch4-4-20 K334E, E380D, G446V (antibody)
heavy: B3 heavy with V114A, K217E, E263D, H269Q, M295V, G329V
B15: ch4-4-20 V273I, K326E, L328I, P396L (antibody)
heavy: B3 heavy with V114A, V156I, K209E, L211I, H269Q, P279L, M295V
B16: ch4-4-20 D280E, S354F, A431D, L441I (antibody)
heavy: B3 heavy with V114A, D163E, S237F, H269Q, M295V, A314D, L324I
B17: ch4-4-20 K246E, V284M, V308A (antibody)
heavy: B3 heavy with V114A, K129E, V167M, V191A, H269Q, M295V
B18: ch4-4-20 C229Y, A287T, V379M, P396L, L443V (antibody)
heavy: B3 heavy with C112Y, V114A, A170T, V262M, H269Q, P279L, M295V, L326V
B19: ch4-4-20 K326Q, K334E, T359N, T366S (antibody)
heavy: B3 heavy with V114A, K209Q, K217E, T242N, T249S, H269Q, M295V
B20: ch4-4-20 R301H, K340E, D399E (antibody)
heavy: B3 heavy with V114A, R184H, K223E, H269Q, D282E, M295V
B21: ch4-4-20 F275L, Q362H, N384K, P396L (antibody)
heavy: B3 heavy with V114A, F158L, Q245H, N267K, H269Q, P279L, M295V
B22: ch4-4-20 N315I, V379M, T394M (antibody)
heavy: B3 heavy with V114A, N198I, V262M, H269Q, T277M, M295V
B23: ch4-4-20 T335N, K370E, A378V, T394M, S424L (antibody)
heavy: B3 heavy with V114A, T218N, K253E, A261V, H269Q, T277M, M295V, S307L
B24: ch4-4-20 P343S, P353L, S375I, S383N (antibody)
heavy: B3 heavy with V114A, P226S, P236L, S258I, S266N, H269Q, M295V
B25: ch4-4-20 K290E, V369A, T393A, P396L (antibody)
heavy: B3 heavy with V114A, K173E, V252A, H269Q, T276A, P279L, M295V
B26: ch4-4-20 F243L, R255L, E318K (antibody)
heavy: B3 heavy with V114A, F126L, R138L, E201K, H269Q, M295V
B27: ch4-4-20 V303I, V369F, M428L (antibody)
heavy: B3 heavy with V114A, V186I, V252F, H269Q, M295V, M311L
B28: ch4-4-20 T256S, V305I, K334E, N390S (antibody)
heavy: B3 heavy with V114A, T139S, V188I, K217E, H269Q, N273S, M295V
B29: ch4-4-20 P247L, A330T, S440G (antibody)
heavy: B3 heavy with V114A, P130L, A213T, H269Q, M295V, S323G
B30: ch4-4-20 F243L, V305I, A378D, F404S, P396L (antibody)
heavy: B3 heavy with V114A, F126L, V188I, A261D, H269Q, P279L, F287S, M295V
notes: also called MgFc54
B31: ch4-4-20 K246I, Q362H, K370E (antibody)
heavy: B3 heavy with V114A, K129I, Q245H, K253E, H269Q, M295V
B32: ch4-4-20 K326I, S408N, P396L (antibody)
heavy: B3 heavy with V114A, K209I, H269Q, P279L, S291N, M295V
B33: ch4-4-20 K290T, N390I, P396L (antibody)
heavy: B3 heavy with V114A, K173T, H269Q, N273I, P279L, M295V
B34: ch4-4-20 A378V, N390I, V422I (antibody)
heavy: B3 heavy with V114A, A261V, H269Q, N273I, M295V, V305I
B35: ch4-4-20 F275I, K334N, V348M (antibody)
heavy: B3 heavy with V114A, F158I, K217N, V231M, H269Q, M295V
B36: ch4-4-20 P244A, K326I, C367R, S375I, K447T (antibody)
heavy: B3 heavy with V114A, P127A, K209I, C250R, S258I, H269Q, M295V, K330T
B37: ch4-4-20 P291S, K288E, H268L, A141V (antibody)
heavy: B3 heavy with A24V, V114A, H151L, K171E, P174S, H269Q, M295V

Key:
[1] = target: T1, FcγRIIB (form not stated) (UniProt P31994 43-217, limits assumed); assay: ELISA
T1 construct: also called FcγRIIB (ELISA)
T1 sequence (looked up): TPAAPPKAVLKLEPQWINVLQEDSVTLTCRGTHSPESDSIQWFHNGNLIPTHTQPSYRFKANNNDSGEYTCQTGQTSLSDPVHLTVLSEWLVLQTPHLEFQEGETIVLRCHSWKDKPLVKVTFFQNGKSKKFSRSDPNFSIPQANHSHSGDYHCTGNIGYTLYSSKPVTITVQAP

[2] = target: T2, FcγRIIIA (form not stated) (UniProt P08637 17-208, limits assumed); assay: ELISA
T2 construct: also called FcγRIIIA (ELISA)
T2 sequence (P08637 17-208 F176V limits assumed, form in doubt): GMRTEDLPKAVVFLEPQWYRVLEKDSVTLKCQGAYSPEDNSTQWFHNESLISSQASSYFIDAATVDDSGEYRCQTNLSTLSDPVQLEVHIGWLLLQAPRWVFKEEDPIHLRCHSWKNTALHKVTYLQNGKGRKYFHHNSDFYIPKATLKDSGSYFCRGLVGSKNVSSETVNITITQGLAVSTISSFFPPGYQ

| Binder | fold increase vs WT [1] | fold increase vs WT [2] | other results |
| --- | --- | --- | --- |
| B1 | 7 x | – | – |
| B2 | 4 x | – | – |
| B3 | 6 x | 1.5 x | – |
| B4 | – | – | binding result [1]: no binding |
| B5 | – | – | binding result [1]: binds; fold vs WT [2]: 1 x |
| B6 | 6 x | 2.5 x | – |
| B7 | 2.5 x | 3 x | – |
| B8 | 7 x | 1 x | – |
| B9 | 5 x | 1 x | – |
| B10 | 1 x | 1.5 x | – |
| B11 | 4.8 x | 1.1 x | – |
| B12 | – | 1 x | binding result [1]: binds |
| B13 | 1.5 x | 1.75 x | – |
| B14 | – | – | binding result [1]: no binding |
| B15 | 10.8 x | 1.3 x | – |
| B16 | – | 3 x | binding result [1]: binds |
| B17 | – | – | binding result [1]: no binding |
| B18 | 10 x | – | – |
| B19 | 5 x | 1.5 x | – |

| Binder | fold increase vs WT [1] | fold increase vs WT [2] | other results |
| --- | --- | --- | --- |
| B20 | – | – | fold decrease vs WT [1]: 0.25 x; fold decrease vs WT [2]: 0.5 x |
| B21 | 3.7 x | 2.2 x | – |
| B22 | 9 x | 1 x | – |
| B23 | – | 0.5 x | binding result [1]: binds |
| B24 | 6 x | 0.5 x | – |
| B25 | 6.7 x | 1.3 x | – |
| B26 | – | 1 x | – |
| B27 | – | – | binding result [1]: no binding |
| B28 | – | 1.5 x | binding result [1]: binds |
| B29 | – | 0.75 x | fold decrease vs WT [1]: 0.25 x |
| B30 | 5.4 x | 1.6 x | – |
| B31 | – | – | fold decrease vs WT [1]: 0.5 x |
| B32 | 9.3 x | 4 x | – |
| B33 | 6.1 x | 2.8 x | – |
| B34 | 5 x | 0.5 x | – |
| B35 | – | 0.5 x | binding result [1]: binds |
| B36 | 3 x | – | – |
| B37 | – | – | fold decrease vs WT [2]: 0.5 x |
